Drawing on publication PMC12410710, this text covers stoichiometry N for one substance.

This assay concerns the target CsrA (Salmonella Typhimurium) (UniProt P69916). Briefly: SEC; S75 Superdex column after Ni2+-NTA; SEC buffer 25 mM Tris, 150 mM NaCl, 10% glycerol, 1 mM DTT, pH 7.5; oligomeric state judged from the elution profile.

CsrA, P69916 1-61 (natural protein; other documents disagree on this pair), sequence (P69916 whole entry): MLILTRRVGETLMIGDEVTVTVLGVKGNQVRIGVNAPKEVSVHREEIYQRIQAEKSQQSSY

A word on the stoichiometry N: it is the number of molecules, sites or subunits per partner or assembly. Turning to “CsrA, P69916 1-61 (natural protein; other documents disagree on this pair)”, the stoichiometry N was 2.
